≈ marks a conversion by molar mass, not a printed value. Where “and” joins values, the source holds several entries; their conditions need not be identical. Equal entries are not always repeated. Where two headings read alike, the source gives them in different places.
What was measured:
[1] = tested on: G. vaginalis (ATCC 14018); test: Bactericidal effect in suspension by quantitative plating, wild type and MDZ-passaged; format: cell-based, Gardnerella vaginalis; conditions: for reduction of a suspension of 108 CFU/mL: 10 μg/mL, 1 h
Protocol: Bacterial suspensions (OD600 of 0.1, corresponding to approximately 10^7-10^8 CFU/mL) were prepared by scraping the cells from confluently grown agar plates and diluting them into NYCB+10% HS, pH 5.5. Reactions were performed in triplicate by mixing ten μl of endolysin (200 μg/mL) with 90 μL bacterial suspension in the wells of a 96-well plate. Ten UL MES buffer without the endolysin was used as a control. […] Tenfold dilution series (10^−1 to 10^−6) of the cell reaction mixtures were prepared in NYCB+10% HS and 2 μL of each dilution were spotted onto Choc agar plates. After anaerobic incubation at 37° C. for 48 h, colonies were counted, CFU/mL calculated, and the log10 reduction compared to MES buffer treated control was determined.
(§1) All MICs determined after 48 h of incubation.

[2] = tested on: MDZ or MDZ-OH passaged Gardnerella strains grown as biofilm; test: MBEC on biofilms of the six passaged strains, summary; format: cell-based, Gardnerella spp.; conditions: for Susceptibility of MDZ-passaged strains grown as biofilm (FIG. 4): 72 h pre-formed biofilms treated for 24 h; for MBEC, range over passaged strains: six strains passaged on MDZ or MDZ-OH, pre-formed biofilms, 24 h treatment
Protocol: (§2) Gardnerella spp. (see figures for strain specification) was resuspended in brain heart infusion broth supplemented with 2% (w/v) gelatin, 0.5% yeast extract (w/v), 0.1% starch (w/v) and 0.25% glucose (w/v) (sBHIG). Passaged strains were resuspended in unbuffered NYCB supplemented with 1% glucose (w/v) (sNYCB). The OD600 was set to 0.1 (approx. 10^7-10^8 CFU/mL) and the cell suspension was diluted 1:10 in growth medium as input for biofilm formation. A total of 200 μL of the respective bacterial suspensions was added to 96-well flat bottom plates (tissue-culture treated, Sigma-Aldrich). The biofilms were grown under anaerobic conditions at 37° C. for 40 to 72 hours, depending on the isolate. Subsequently, the supernatant was removed, and the biofilm was treated with antimicrobials dissolved in sBHIG (at pH 5 for treatment with PM-477 (H2B10), and unbuffered for treatment with antibiotics) in 100 μL and incubated anaerobically at 37° C. for another 24 hours. After the treatment, the biofilms were washed twice with 200 μL 1x PBS and dissolved by vigorous pipetting (40x up and down). Serial dilutions of the dissolved cells were spotted on chocolate agar plates. The plates were incubated anaerobically for two to three days and the minimum biofilm eradication concentration (MBEC) of the endolysin or the antibiotics in use were calculated.

[3] = tested on: G. piotii biofilm; format: cell-based, Gardnerella piotii
Protocol: as §2
Gardnerella dominated biofilms covering the human vaginal epithelial cells are now generally considered as a hallmark of BV. Thus, it was tested how effective antibiotics and PM-477 (H2B10) are in penetrating and killing in vitro pre-formed, 40-72 h old biofilms of various Gardnerella strains.

[4] = tested on: passaged G. vaginalis biofilm; test: MBEC on biofilms of passaged strains; format: cell-based, Gardnerella vaginalis
Protocol: as §2, §1

[5] = tested on: Gardnerella piotii; test: MIC / MBC99.5 assessment in suspension; format: cell-based
Protocol: (§3) The minimum inhibitory concentration (MIC), which is a standard measure of the activity of antimicrobials, was determined according to the Clinical and Laboratory Standards Institute protocol (2018) Methods for Antimicrobial Susceptibility Testing of Anaerobic Bacteria (Carpenter et al., 2018). […] Controls for growth in the absence of antimicrobials were also included. OD600 was recorded by a microplate reader (Tecan, Grodig, Austria) after incubation at 37° C. for 48 h or, for some fast-growing strains, after incubation for 24 h. Absence of growth was defined as OD600≤0.14. […] MIC readout and MBC99.5 spotting were performed after 72 h incubation for H2B10B11.
(§4) However, topical intravaginal antibiotic administration is recommended for BV therapy, which allows to reach concentrations of active ingredients in the mg/mL range. […] Abbreviations: n.d., not determined; SJHB, St. Jan Hospital Bruges.
(§5) MIC90 is defined as the MIC value for 90% of the tested strains. For PM-477 (H2B10), the resistance breakpoint is not defined, therefore a “% resistant” is not defined (n.d.).

[6] = tested on: Gardnerella leopoldii; test: MIC / MBC99.5 assessment in suspension; format: cell-based
Protocol: as §3, §4, §5

[7] = ancestor G. piotii UGent 18.01, pre-formed biofilm
[8] = ancestor G. piotii UGent 21.28, pre-formed biofilm
[9] = G. vaginalis (ATCC 14018T) passaged with MDZ
[10] = G. vaginalis (UGent 09.07) passaged 8 times with MDZ-OH
[11] = G. vaginalis (UGent BV50) passaged with MDZ-OH
[12] = Gardnerella piotii, N=7 strains
[13] = Gardnerella leopoldii, N=3 strains

With `Cc1ncc([N+](=O)[O-])n1CCO` [MDZ, metronidazole] the “reduction compared to the buffer treated control” value ([1]; MDZ-passaged G. vaginalis (ATCC 14018), 2 mg/ml, 24 h) was 2 log, the loss in viability ([1]; MDZ-passaged G. vaginalis (ATCC 14018), up to 2 mg/ml, 1 and 5 hours) was “without any loss in viability” and the “Susceptibility of MDZ-passaged strains grown as biofilm (FIG. 4)” value [2] was “resistant”. The “MBEC, range over passaged strains” value [2] was greater than 2048 µg/mL, the MBEC [3, 7] was 8 µg/mL and the MBEC [3, 8] was 8 to 32 µg/mL. For the same molecule, the MBEC passaged [4, 9] was greater than 2048 µg/mL, the MBEC passaged [4, 10] was greater than 2048 µg/mL and the MBEC passaged [4, 11] was greater than 2048 µg/mL. For the same molecule, the MIC ([5]; Gardnerella piotii, 48 h, read-out: MIC before passaging) was 32 µg/mL (≈ 187 µM), the MBC ([5]; Gardnerella piotii, G. piotii (BV049) UGent BV049.1) was 32 µg/mL (≈ 187 µM) and the MBC ([5]; Gardnerella piotii, G. piotii (BV154) UGent BV154.1) was 32 µg/mL (≈ 187 µM). The MBC ([5]; Gardnerella piotii, G. piotii (FB041) UGent FB041) was 64 µg/mL (≈ 374 µM), the MIC ([5]; Gardnerella piotii, G. piotii (FB041) UGent FB041, suspension, read-out: MIC) was 32 µg/mL (≈ 187 µM) and the MBC ([5]; Gardnerella piotii, G. piotii (Gp17) UGent 18.01(T)) was 64 µg/mL (≈ 374 µM). It also gave an MIC ([5]; Gardnerella piotii, G. piotii (Gp17) UGent 18.01(T), suspension, read-out: MIC) of 32 µg/mL (≈ 187 µM), an MIC ([5]; Gardnerella piotii, G. piotii (Gp22) UGent 21.28, suspension, read-out: MIC) of 64 µg/mL (≈ 374 µM) and an MBC ([5]; Gardnerella piotii, G. piotii (P80275) UGent P80275) of 64 µg/mL (≈ 374 µM). The MIC ([5]; Gardnerella piotii, G. piotii (P80275) UGent P80275, suspension, read-out: MIC) was 16 µg/mL (≈ 93.5 µM), the “N resistant (%)” value ([5]; Gardnerella piotii, N=7, resistance ≥32 μg/mL MDZ) was 57% and the N resistant ([5]; Gardnerella piotii, N=7, resistance ≥32 μg/mL MDZ, ≥8 μg/mL CLI) was 4. The MBC ([5]; Gardnerella piotii, G. piotii (BV140) UGent BV140.2) was greater than 512 µg/mL, the MIC ([6]; Gardnerella leopoldii, G. leopoldii (BV217) UGent BV217.1, suspension, read-out: MIC) was 256 µg/mL (≈ 1500 µM) and the “N resistant (%)” value ([6]; Gardnerella leopoldii, N=3, resistance ≥32 μg/mL MDZ) was 100%. It also gave a N resistant ([6]; Gardnerella leopoldii, N=3, resistance ≥32 μg/mL MDZ, ≥8 μg/mL CLI) of 3, an MIC90 ([6]; Gardnerella leopoldii, N=3 strains, read-out: MIC90) greater than 256 µg/mL and an MBC ([6]; Gardnerella leopoldii, read-out: MBC99.5) of 512 µg/mL (≈ 2990 µM).

B1: PM-477: genetically engineered recombinant Gardnerella-specific endolysin, amino acid sequence SEQ ID NO: 1, His-tag cleaved off (protein)
chain: SKRGIDVSEWQGDIDFNAVKASGVEFVIIRAGYGIGCKDKWFEQNYRKAKTCGLDVGAYWYSYANSGFEAAEEAQSCVNMLSGKSFEYPVYFDLEEKSQLNRGRAFCDSLITGFCNKLESCGYYAGFYTSLSTANNLVSAHVRNRYALWIAQWNTHCSYQGSYGLWQYSSSGSVPGVAGRVDMDYAYVDYPSIIKNVGLNGYKNGGSYTAPQISSIDEVAREVINGDWGNGNERKQRLTSAGYDYASVQNKVNELLGVKAYRKSVDELAREVIRGTWGNGSTRKQRLTQAGYDYNAVQKRVNELL
modifications: His-tag cleaved off; H2B10
B1 was tested, and the “reduction of a suspension of 108 CFU/mL” value ([1]; MDZ-passaged G. vaginalis (ATCC 14018)) was 2.8 log units, the “reduction of a suspension of 108 CFU/mL” value ([1]; ancestral G. vaginalis (ATCC 14018)) was 3.0 log units and the “Susceptibility of MDZ-passaged strains grown as biofilm (FIG. 4)” value [2] was “susceptible”. The “MBEC, range over passaged strains” value ([2]; listed as PM-477 (H2B10)) was 1 to 8 µg/mL and 1 to 4 µg/mL, the MBEC [3, 7] was 8 µg/mL and the MBEC [3, 8] was 2 to 8 µg/mL. It also gave an MBEC passaged [4, 9] of 2 to 8 µg/mL, an MBEC passaged [4, 10] of 2 to 4 µg/mL and an MBEC passaged [4, 11] of 1 to 8 µg/mL. For the same molecule, the MBC99.5 ([5]; G. piotii (BV049) UGent BV049.1) was 1 µg/mL, the MIC ([5]; G. piotii (BV049) UGent BV049.1, suspension) was 1 µg/mL and the MBC99.5 ([5]; G. piotii (BV140) UGent BV140.2) was 2 µg/mL. For the same molecule, the MIC ([5]; G. piotii (BV140) UGent BV140.2, suspension) was 1 µg/mL, the MBC99.5 ([5]; G. piotii (BV154) UGent BV154.1) was 1 µg/mL and the MIC ([5]; G. piotii (BV154) UGent BV154.1, suspension) was 0.5 µg/mL. The MBC99.5 ([5]; G. piotii (FB041) UGent FB041) was 1 µg/mL, the MIC ([5]; G. piotii (FB041) UGent FB041, suspension) was 0.5 µg/mL and the MBC99.5 ([5]; G. piotii (Gp17) UGent 18.01(T)) was 4 µg/mL. The MIC ([5]; G. piotii (Gp17) UGent 18.01(T), suspension) was 1 µg/mL, the MBC99.5 ([5]; G. piotii (Gp22) UGent 21.28) was 2 µg/mL and the MIC ([5]; G. piotii (Gp22) UGent 21.28, suspension) was 1 µg/mL. It also gave an MBC99.5 ([5]; G. piotii (P80275) UGent P80275) of 1 µg/mL, an MIC ([5]; G. piotii (P80275) UGent P80275, suspension) of 0.5 µg/mL and an MIC before passaging ([5]; G. piotii (UGent 18.01T), 48 h incubation) of 1 µg/mL. For the same molecule, the MIC90 [5, 12] was 1 µg/mL, the “MIC Range” value [5, 12] was 0.5 to 1 µg/mL and the MBC99.5 ([6]; G. leopoldii (BV13) UGent BV13.2) was 2 µg/mL. The MIC ([6]; G. leopoldii (BV13) UGent BV13.2, suspension) was 0.5 µg/mL, the MBC99.5 ([6]; G. leopoldii (BV217) UGent BV217.1) was 1 µg/mL and the MIC ([6]; G. leopoldii (BV217) UGent BV217.1, suspension) was 0.25 µg/mL. The MBC99.5 ([6]; G. leopoldii (Gl11) UGent 09.48) was 0.5 µg/mL, the MIC ([6]; G. leopoldii (Gl11) UGent 09.48, suspension) was 0.125 µg/mL and the MIC90 [6, 13] was 0.5 µg/mL. For the same molecule, the “MIC Range” value [6, 13] was 0.125 to 0.5 µg/mL.

— patent publication US20250144186A1, “NOVEL THERAPEUTIC USES OF GARDNERELLA ENDOLYSINS” (priority 2022, published 2025)
